Drawing on patent publication US5416015A, “Isolated genes encoding peptidyl prolyl-cis.trans-isomerase and plasmids comprising said genes” (Tonen Corporation, priority 1989, dated 1995), this text covers specific activity for one molecule.

The series can be described thus: Specific activity of enzyme (PPIase activity measurement). Type of series: biochemical. The following applies: recombinant E. coli PPIase-β, FIG. 26. The source says: As a result, the specific activity of the natural enzyme was.51,480 arbitrary units/[…] 1 unit, while that of the recombinant enzyme was 52,876 arbitrary units/A280 1 unit. Thus, no distinction could be made on specific activity (FIG. 26).

B1: recombinant enzyme: E. coli PPIase-β produced by E. coli HB101 transformed with expression plasmid pATtrp EPPIb (protein, UniProt P23869 1-164, looked up)
Peptidyl-prolyl cis-trans …: MVTFHTNHGDIVIKTFDDKAPETVKNFLDYCREGFYNNTIFHRVINGFMIQGGGFEPGMKQKATKEPIKNEANNGLKNTRGTLAMARTQAPHSATAQFFINVVDNDFLNFSGESLQGWGYCVFAEVVDGMDVVDKIKGVATGRSGMHQDVPKEDVIIESVTVSE
Turning to B1, the specific activity is on record as 52,876 arbitrary units/A280 1 unit.
